Data taken from the supplement of paper PMC10567573.
± gives the standard deviation.

Assay: protein stability index of a GFP-peptide fusion (GPS, HEK-293T) (PSI 1-6); higher = more stable
Details: c terminus: a fixed tail appended
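Also: 24-mer peptide tiles fused after GFP, lentivirally expressed, FACS-sorted into six equal bins by GFP/DsRed ratio, decoded by Illumina sequencing, PSI is the read-weighted mean bin number.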

Sequence | protein stability index (treatment: DMSO) | protein stability index (treatment: MLN4924 1 uM, 8 h)
PSLLELAWEKLLAAFPNLANLSRT [KLHDC10] | 2.56 ± 0.21 | 2.55 ± 0.24
PSNARGPILSRSTSTGSAASSGSN [SPRY1] | 4.96 ± 0.17 | 5.01 ± 0.12
PSPSTLEPHPRPLLQRELMVPGTR [TNXB] | 4.4 ± 0.24 | 4.36 ± 0.59
PSPVRAPAPSPAKEERKTEVVMNS [PALM] | 5.35 ± 0.36 | 5.53 ± 0.13
PSQDERMRSPQNLHSQEDDDSSSE [NOL4L] | 5.62 ± 0.14 | 5.56 ± 0.21
PSQRLVQNCLWTLRNLSDAATKQE [CTNNB1] | 3.31 ± 0.18 | 3.19 ± 0.25
PSSMDLLIQDSPDSSTSPKGKQPT [NANOGP8] | 5.2 ± 0.2 | 5.3 ± 0.18
PSSQKALLLELKGLQEEPVEGFRV [CDC34] | 3.68 ± 0.14 | 3.47 ± 0.14
PTDRNLCHFQALGCRTTHSNQEVL [PYCR3] | 2.49 ± 0.35 | 2.37 ± 0.22
PTFRFLTKMWHPNIYENGDVCISI [UBE2R2] | 3.01 ± 0.68 | 3.15 ± 0.71
PTHQAHTVGFLDEAIQPYRDRLRS [TRIM15] | 4.52 ± 0.039 | 4.44 ± 0.13
PVAQSTDAIRGKVGYTRGLHVWQI [SPSB1] | 2.15 ± 0.13 | 2.21 ± 0.17
PVTRNERHSYQVYRQPIPVQELVL [NET1] | 2.79 ± 0.23 | 2.88 ± 0.23
QAGSSQGLSLCQFQNFSLHDPLYG [LPCAT4] | 3 ± 0.41 | 2.98 ± 0.31
QAIDATVAAELLNHLLESMPLREG [HES6] | 2.43 ± 0.41 | 2.3 ± 0.28
QALQAGPEGARRGLGVLRALGSRG [FANCE] | 4.38 ± 0.33 | 4.31 ± 0.26
QAPPVPGPPPGAPHTPQTPGQGGP [NR2F2] | 5.22 ± 0.56 | 5.05 ± 0.38
QEQEIDGKSLLLMTRNDVLTGLQL [SAMD13] | 3.23 ± 0.23 | 3.36 ± 0.24
QEVLSLRRENSTLDVECHEKEKHV [SASS6] | 5.2 ± 0.38 | 5.52 ± 0.4
QEYQVLLDVRARLECEINTYRSLL [KRT33B] | 2.25 ± 0.34 | 2.19 ± 0.26
QGKDWGFKKFIRRDFLLDEANGLL [SPOPL] | 2.72 ± 0.27 | 2.31 ± 0.23
QGRFCTIFRSYSRGAQGILLVYDI [RAB40C] | 2.74 ± 0.61 | 3.1 ± 0.64

Sequence | protein stability index (treatment: DMSO) | protein stability index (treatment: MLN4924 1 uM, 8 h)
QHECVNTDDSYSCHCLKGFTLNPD [MATN2] | 4.04 ± 0.16 | 4.15 ± 0.25
QHNLRDSLENTLTESEAHYSSQLS [KRT34] | 5.066 ± 0.033 | 4.99 ± 0.23
QKCHSIGETDEVTKTEDRELVLRK [ZSCAN9] | 5.32 ± 0.3 | 5.37 ± 0.2
QKLLEQTQIIGEQNARLAELERKL [FBXO28] | 4.15 ± 0.082 | 4.24 ± 0.38
QKPEFQDLSVEERSFVEKHRWPSN [RHOBTB3] | 4.08 ± 0.34 | 4.04 ± 0.17
QLLILLQNCTDEGEREAIQKSVTR [POP5] | 3.91 ± 0.26 | 4.12 ± 0.27
QLQFLIRYHRFISFALYLAGFCMF [CDS1] | 2.07 ± 0.062 | 2.32 ± 0.52
QMREAFATAFSKLKPESSQQPGQD [ZBED1] | 4.57 ± 0.19 | 4.62 ± 0.094
QPVKTAGEITQHNVTELLRDVAAW [DNAAF3] | 3.73 ± 0.32 | 3.75 ± 0.27
QPVSLRRRKREVLVEDMVSQEEAQ [ZNF24] | 5.07 ± 0.25 | 5.34 ± 0.33
QQCVDKESSLGSESEEEEEFYDAD [SLC22A15] | 5.52 ± 0.45 | 5.33 ± 0.33
QQQRQRPPRPPPRGTPPRRHSFRK [N4BP2L1] | 4.44 ± 0.16 | 4.75 ± 0.26
QRLGIPKDPRQWTETHVRDWVMWA [ETS1] | 2.37 ± 0.31 | 2.48 ± 0.3
QRTIMKPLEYQFKSQIMSLSHSPQ [TLE6] | 2.89 ± 0.26 | 3.2 ± 0.23
QSILLNTRLQDCYVDSPALTNIWM [C22orf31] | 2.24 ± 0.24 | 2.1 ± 0.36
QSQLSMKAGLENSLAETECRYATQ [KRT15] | 4.38 ± 0.23 | 4.46 ± 0.17
QSYFKTIEDFQQKILLTKSENARL [KRT36] | 3.05 ± 0.42 | 2.77 ± 0.23
QSYPLCIYLINQKWFGRKRTLSAF [SLC22A15] | 2.46 ± 0.47 | 2.2 ± 0.61
QTKQVYDAVGMLGIEEVTYENCLQ [NLN] | 3.56 ± 0.4 | 3.73 ± 0.53
QWSSDVAPTSTCRTSVGVAVLGGF [KLHL20] | 2.69 ± 0.58 | 2.71 ± 0.86
QYEGHVNEYAYLPLHVHEEEGILV [DCAF4] | 3.19 ± 0.13 | 3.17 ± 0.27
QYLEEERHMREENLRLQRKLQREM [CCDC6] | 4.24 ± 0.22 | 4.16 ± 0.42

Sequence | protein stability index (treatment: DMSO) | protein stability index (treatment: MLN4924 1 uM, 8 h)
QYVITHAKVNILLVENDQQLQKIL [ACSBG2] | 2.5 ± 0.58 | 2.13 ± 0.2
RAFKIKDFANTIPGHGGIMDRFDC [CDS1] | 2.41 ± 0.28 | 2.76 ± 0.27
RAKLDELEGALHQAKEELARMLRE [KRT71] | 2.97 ± 0.36 | 3.7 ± 0.33
RAPVVGVRVNVLLSRYLIEPCGPG [DLC1] | 2.45 ± 0.7 | 2.79 ± 0.86
RAVNSLSMENANQENEEKEQVANK [BEX1] | 5.52 ± 0.24 | 5.5 ± 0.34
RDSFMRHRGHCERRHRLGGVGAVP [ZBTB22] | 3.22 ± 0.35 | 3.25 ± 0.4
REGALRAALQRSLAAALAQHSVPL [TRADD] | 2.25 ± 0.3 | 2.28 ± 0.2
RELNLPFGGMKSSGIGREGAKDSY [ALDH8A1] | 4.08 ± 0.12 | 4.16 ± 0.37
RERDSVPKPSVLFLHPDLGVGGAE [ALG2] | 4.08 ± 0.41 | 4.21 ± 0.16
RETASLKLLPHQPRIVEMKKGSNG [PDZK1] | 3.75 ± 0.31 | 3.85 ± 0.32
REVAKELGIPYYETSVVAQFGIKD [RHOBTB2] | 3.2 ± 0.43 | 3.39 ± 0.27
RFKDKSSEEAVREVHRLIEGKAPI [TPPP] | 4.6 ± 0.15 | 4.58 ± 0.18
RFLGEGHHRVQENQMDKARRHPQG [CHGB] | 4.5 ± 0.44 | 4.62 ± 0.38
RFNLILADTNSDRLFTVNDVKVGG [DCAF4] | 2.44 ± 0.15 | 2.31 ± 0.4
RFQDLVLRMLEYEPAARISPLGAL [DYRK1B] | 2.67 ± 0.47 | 2.4 ± 0.43
RGDLWISWEEGMKVFEELLLDADW [CRY1] | 2.31 ± 0.41 | 2.4 ± 0.29
RGKIHAFRGQILGFWEEERPFWEE [CCDC70] | 2.42 ± 0.14 | 2.47 ± 0.24
RGRMPPTQPTHGQFALTNGDPLNC [NR2F2] | 4.06 ± 0.12 | 3.97 ± 0.26
RISSPQVEEGDSRFLANEVLQENY [WEE1] | 4.83 ± 0.44 | 4.91 ± 0.13
RKAAKSLIKLGLERFHGVGILGFN [ACSBG2] | 2.64 ± 0.49 | 2.51 ± 0.35
RKFWWKNVKMIVLICVIVFIIILF [VAMP8] | 3.13 ± 0.32 | 2.98 ± 0.3
